# Positions count from the first letter of the chain named.
# T1: Cascade- (crRNA-free Cse1-Cse2-Cas7-Cas5-Cas6e) (Escherichia coli (K12; expressed in …, UniProt Q46901;P76632;Q46899;Q46898;Q46897 1-502;1-160;1-363;1-224;1-199)
# T1 sequence 1: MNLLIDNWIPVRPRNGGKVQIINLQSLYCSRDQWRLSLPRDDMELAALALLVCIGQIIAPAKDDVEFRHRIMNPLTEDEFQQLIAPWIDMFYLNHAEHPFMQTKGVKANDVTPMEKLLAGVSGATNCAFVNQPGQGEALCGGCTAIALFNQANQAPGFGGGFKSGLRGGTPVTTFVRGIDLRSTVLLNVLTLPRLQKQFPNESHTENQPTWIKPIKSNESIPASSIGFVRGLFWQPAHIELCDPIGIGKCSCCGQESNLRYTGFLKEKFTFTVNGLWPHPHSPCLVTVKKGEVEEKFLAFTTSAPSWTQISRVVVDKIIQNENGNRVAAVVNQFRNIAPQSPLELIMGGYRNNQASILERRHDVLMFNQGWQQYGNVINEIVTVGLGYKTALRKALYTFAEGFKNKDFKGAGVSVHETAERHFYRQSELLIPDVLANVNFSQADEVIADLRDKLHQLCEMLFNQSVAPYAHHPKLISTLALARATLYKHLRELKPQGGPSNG
# T1 sequence 2: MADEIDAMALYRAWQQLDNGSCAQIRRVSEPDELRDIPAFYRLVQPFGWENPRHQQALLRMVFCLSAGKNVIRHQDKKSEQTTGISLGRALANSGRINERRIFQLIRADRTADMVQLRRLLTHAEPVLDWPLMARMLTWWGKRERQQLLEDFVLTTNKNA
# T1 sequence 3: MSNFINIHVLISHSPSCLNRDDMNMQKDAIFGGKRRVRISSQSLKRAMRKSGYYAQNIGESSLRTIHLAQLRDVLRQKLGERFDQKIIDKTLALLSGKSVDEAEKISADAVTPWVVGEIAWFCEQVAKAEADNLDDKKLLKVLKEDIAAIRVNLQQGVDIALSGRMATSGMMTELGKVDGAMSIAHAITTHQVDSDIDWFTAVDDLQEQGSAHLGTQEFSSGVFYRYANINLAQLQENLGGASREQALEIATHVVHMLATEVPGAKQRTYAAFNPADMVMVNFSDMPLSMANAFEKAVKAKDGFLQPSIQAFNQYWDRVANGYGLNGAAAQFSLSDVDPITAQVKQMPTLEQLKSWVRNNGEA
# T1 sequence 4: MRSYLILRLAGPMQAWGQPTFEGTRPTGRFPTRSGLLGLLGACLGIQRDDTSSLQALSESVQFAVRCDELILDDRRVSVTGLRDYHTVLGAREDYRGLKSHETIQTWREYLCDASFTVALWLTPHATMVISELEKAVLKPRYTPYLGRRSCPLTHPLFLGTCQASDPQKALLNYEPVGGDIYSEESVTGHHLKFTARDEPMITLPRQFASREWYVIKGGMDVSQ
# T1 sequence 5: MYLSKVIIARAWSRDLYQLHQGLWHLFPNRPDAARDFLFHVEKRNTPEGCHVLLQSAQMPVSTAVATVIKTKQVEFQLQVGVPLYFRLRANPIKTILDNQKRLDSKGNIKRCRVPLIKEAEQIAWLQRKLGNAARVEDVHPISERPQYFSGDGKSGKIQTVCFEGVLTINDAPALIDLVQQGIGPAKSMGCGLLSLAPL
# B1: crRNA2 (-8/+21), no cyclic phosphate (structured_RNA)
# RNA: AUAAACCGCUGUCUUUCGCUGCUGAGGGUGACGAUCCGCCGAGUUCCCCGCGCCAGCGGGG
# modifications: no 2',3'-cyclic phosphate
# B2: crRNA2 + g8 dsDNA (mixed)
# RNA: B1 RNA
# DNA 1: CAGGGAGTTAAAGGCCGCTTTTGCGGGATCGTCACCCTCAGCAGCGAAAGACAGCATCGGAACGAGGGTAGCAACGGCT
# DNA 2: AGCCGTTGCTACCCTCGTTCCGATGCTGTCTTTCGCTGCTGAGGGTGACGATCCCGCAAAAGCGGCCTTTAACTCCCTG
# modifications: no 2',3'-cyclic phosphate on crRNA
# B3: crRNA7 (-8/+1C) + g8 dsDNA (mixed)
# RNA: AUAAACCGCUGUCUUUCGCUGCUGAGGGUGACGAUCCGCCC
# DNA 1: B2 DNA 1
# DNA 2: B2 DNA 2
# B4: crRNA7 (-8/+1A) + g8 dsDNA (mixed)
# RNA: B3 RNA with C41A
# DNA 1: B2 DNA 1
# DNA 2: B2 DNA 2
# B5: crRNA7 (-6/+5) + g8 dsDNA (mixed)
# RNA: AAACCGCUGUCUUUCGCUGCUGAGGGUGACGAUCCGCCGAGUU
# DNA 1: B2 DNA 1
# DNA 2: B2 DNA 2
# B6: crRNA7 (-8/+1U) + g8 dsDNA (mixed)
# RNA: B3 RNA with C41U
# DNA 1: B2 DNA 1
# DNA 2: B2 DNA 2
# B7: poly-C handle crRNA + g8 dsDNA (mixed)
# RNA: CCCCCCCCCUGUCUUUCGCUGCUGAGGGUGACGAUCCGCCGAGUU
# DNA 1: B2 DNA 1
# DNA 2: B2 DNA 2
# B8: poly-A handle crRNA9 + g8 dsDNA (mixed)
# RNA: AAAAAAAACUGUCUUUCGCUGCUGAGGGUGACGAUCCGCCGAGUU
# DNA 1: B2 DNA 1
# DNA 2: B2 DNA 2
# B9: crRNA7 (-7/+5) + g8 dsDNA (mixed)
# RNA: UAAACCGCUGUCUUUCGCUGCUGAGGGUGACGAUCCGCCGAGUU
# DNA 1: B2 DNA 1
# DNA 2: B2 DNA 2
# B10: crRNA7 (-8/+1G) + g8 dsDNA (mixed)
# RNA: B3 RNA with C41G
# DNA 1: B2 DNA 1
# DNA 2: B2 DNA 2
# B11: crRNA11 (-8/+18) (ssRNA)
# RNA: AUAAACCGCUGUCUUUCGCUGCUGAGGGUGACGAUCCGCCGAGUUCCCCGCGCCAGCG
# B12: crRNA12 (-8/+11) (ssRNA)
# RNA: AUAAACCGCUGUCUUUCGCUGCUGAGGGUGACGAUCCGCCGAGUUCCCCGC
# Biological target: T1, Cascade- (crRNA-free …)
# Test: EMSA; EMSA: 20 mM Tris-HCl pH 8, 20 mM NaCl, 10 nM 32P probe, 30 min at 30 or 37 C, 6% native PAGE; loading 10 min at 30 C with crRNA (0.5 uM in Fig 3). Kd values are printed only in Fig 5A (not in the material)
# Settings: protein: recombinant; tags: N-terminal 6His on Cse1 (CasA); copies: 1;2;6;1;1; label: 5'-32P; 3' handle hairpin
row,Binder,binding result
1,B1,binds

# Same assay, conditions: protein: recombinant; tags: N-terminal 6His on Cse1 (CasA); copies: 1;2;6;1;1; label: DNA 5'-32P; guide + blunt duplex
row,Binder,binding result
1,B2,binds
2,B3,binds
3,B4,binds
4,B5,no binding
5,B6,binds
6,B7,no binding
7,B8,no binding
8,B9,no binding
9,B10,binds

# Biological target: T1, Cascade- (crRNA-free …)
# Test: EMSA; detectable binding; EMSA: 20 mM Tris-HCl pH 8, 20 mM NaCl, 10 nM 32P probe, 30 min at 30 or 37 C, 6% native PAGE; loading 10 min at 30 C with crRNA (0.5 uM in Fig 3). Kd values are printed only in Fig 5A (not in the material)
# Settings: protein: recombinant; tags: N-terminal 6His on Cse1 (CasA); copies: 1;2;6;1;1; label: 5'-32P
row,Binder,binding result
1,B11,binds
2,B12,binds
3,AUAAACCGCUGUCUUUCGCUGCUGAGGGUGACGAUCCGCCGAGUUCCCC (ssRNA) [crRNA13 (-8/+9)],binds

# — article PMC4288178, “CRISPR RNA binding and DNA target recognition by purified Cascade complexes from Escherichia coli”
